Values belong to the molecule of their own block, whether it stands above or below them.
Experiments:
[1] = molecular target: T1, mouse glycine N-acyltransferase (mGLYAT) (Mus musculus, UniProt Q91XE0); assay: DTNB assay of CoA-SH release, […] benzoyl-CoA and […] glycine; format: biochemical
T1 sequence (Q91XE0 1-296): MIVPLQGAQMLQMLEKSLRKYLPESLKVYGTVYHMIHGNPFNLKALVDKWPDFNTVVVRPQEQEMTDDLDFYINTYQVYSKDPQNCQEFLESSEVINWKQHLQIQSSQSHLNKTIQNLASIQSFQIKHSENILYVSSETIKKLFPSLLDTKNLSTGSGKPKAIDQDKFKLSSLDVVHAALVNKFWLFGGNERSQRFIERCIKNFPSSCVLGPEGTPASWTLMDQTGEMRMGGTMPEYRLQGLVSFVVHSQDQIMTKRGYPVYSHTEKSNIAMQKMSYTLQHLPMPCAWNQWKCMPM

[2] = substrate: CC(=O)SCCNC(=O)CCNC(=O)[C@H](O)C(C)(C)COP(=O)(O)OP(=O)(O)OC[C@H]1O[C@@H](n2cnc3c(N)ncnc32)[C@H](O)[C@@H]1OP(=O)(O)O; assay: purified protein; conditions: amino acceptor substrate
[3] = substrate: CC(C)(COP(=O)(O)OP(=O)(O)OC[C@H]1O[C@@H](n2cnc3c(N)ncnc32)[C@H](O)[C@@H]1OP(=O)(O)O)[C@@H](O)C(=O)NCCC(=O)NCCSC(=O)c1ccccc1; assay: purified protein; format: biochemical, Mus musculus; conditions: amino acceptor substrate
[4] = substrate: CCCC(=O)SCCNC(=O)CCNC(=O)[C@H](O)C(C)(C)COP(=O)(O)OP(=O)(O)OC[C@H]1O[C@@H](n2cnc3c(N)ncnc32)[C@H](O)[C@@H]1OP(=O)(O)O; assay: purified protein; format: biochemical, Mus musculus; conditions: amino acceptor substrate
[5] = substrate: CCCCCC(=O)SCCNC(=O)CCNC(=O)[C@H](O)C(C)(C)COP(=O)(O)OP(=O)(O)OC[C@H]1O[C@@H](n2cnc3c(N)ncnc32)[C@H](O)[C@@H]1OP(=O)(O)O; assay: purified protein; format: biochemical, Mus musculus; conditions: amino acceptor substrate
[6] = substrate: CCOC(=O)CN; assay: purified protein; format: biochemical, Mus musculus; conditions: benzoyl-CoA (co-substrate) amino donor substrate
[7] = substrate: COC(=O)CN; assay: purified protein; format: biochemical, Mus musculus; conditions: benzoyl-CoA (co-substrate) amino donor substrate
[8] = substrate: NCC(=O)O; assay: purified protein; format: biochemical, Mus musculus; conditions: benzoyl-CoA (co-substrate) amino donor substrate

IC50 [1]: 58 ± 4.9 mM
Molecule: O=C(O)CO [Glycolic acid]

IC50 [1]: 0.021 ± 0.0034 mM
Molecule: CCCCCCCC/C=C\CCCCCCCC(=O)SCCNC(=O)CCNC(=O)[C@H](O)C(C)(C)COP(=O)(O)OP(=O)(O)OC[C@H]1O[C@@H](n2cnc3c(N)ncnc32)[C@H](O)[C@@H]1OP(=O)(O)O [Oleoyl-CoA]

B1: mouse glycine N-acyltransferase (mGLYAT) (Mus musculus) (protein)
chain: T1 sequence (Q91XE0 1-296)
Km [2]: 209 ± 43 µM | kcat [2]: 0.8 s⁻¹ | kcat/Km [2]: 3800 M⁻¹ s⁻¹ | Km [3]: 9.4 ± 14 µM | kcat [3]: 4.2 ± 0.25 s⁻¹ | kcat/Km [3]: 450000 ± 27000 M⁻¹ s⁻¹ | Km [4]: 52 ± 7.9 µM | kcat [4]: 15 ± 0.43 s⁻¹ | kcat/Km [4]: 290000 ± 8200 M⁻¹ s⁻¹ | Km [5]: 45 ± 3.0 µM | kcat [5]: 4.6 ± 0.085 s⁻¹ | kcat/Km [5]: 100000 ± 1900 M⁻¹ s⁻¹ | Km [6]: 9700 ± 1700 µM | kcat [6]: 0.57 ± 0.023 s⁻¹ | kcat/Km [6]: 59 ± 2.3 M⁻¹ s⁻¹ | Km [7]: 29000 ± 9100 µM | kcat [7]: 1 ± 0.12 s⁻¹ | kcat/Km [7]: 35 ± 4.1 M⁻¹ s⁻¹ | Km [8]: 6100 ± 1200 µM | kcat [8]: 3.2 ± 0.12 s⁻¹ | kcat/Km [8]: 520 ± 20 M⁻¹ s⁻¹
